For test [1], the target named is Pin1 (HA-Pin1, GST-Pin1) (UniProt Q13526). Put plainly: Affi-Gel peptide pulldown from lysate.
Test [2] has the same target. The experiment in a line: co-IP of HA-Pin1 with Myc-Kv4.2. As to conditions: reference: wild type; sites T607.

For the substance “Kv4.2 (Myc-Kv4.2; synthetic C-terminal peptides) (from UniProt Q9NZV8) pT607 peptide”, the “binding against the reference” value in test [1] (reference: non-phospho peptide, sites T607) was “stronger”.
For “Kv4.2 (Myc-Kv4.2; synthetic C-terminal peptides) (from UniProt Q9NZV8) pT602, pT607 peptide”, the “binding against the reference” value in test [1] (reference: non-phospho peptide, sites T602,T607) is reported as “stronger”; in test [1] (reference: pT607 peptide, sites T602), “stronger”.
On to “Kv4.2 (Myc-Kv4.2; synthetic C-terminal peptides) (from UniProt Q9NZV8) T607A”, for which the “binding against the reference” value in test [2] was “weaker”.
For “Kv4.2 (Myc-Kv4.2; synthetic C-terminal peptides) (from UniProt Q9NZV8) pT602 peptide”, the “binding against the reference” value in test [1] (reference: non-phospho peptide, sites T602) is given as “stronger”.
